Reference: the supplement of paper PMC10567573

B1: PHTF1 (parent)
chain: RVKLISNKGTETDNDPSCVHPIIK
B2: CHCHD6 (parent)
chain: MYKLSSEQFHEAASKMESTIKPRR

Variants of: B1
Experiment: protein stability index of a GFP-peptide fusion (GPS, HEK-293T) (PSI 1-6); higher = more stable
Settings: c terminus: a fixed tail appended
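Note: lentivirally expressed fusions sorted by FACS into six bins by GFP to DsRed ratio, PSI derived from sequencing read proportions per bin multiplied by bin number.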

Protein stability index of substitutions, site by site:
P21: W 3.13 | A 3.72 | M 3.06 | Y 3.4 | S 3.89 | E 4.03 | C 2.75 | H 4.03 | V 3.46 | L 2.3 | Q 3.82 | F 2.73 | T 3.87 | D 3.95 | R 4 | N 3.61 | K 3.84 | I 2.1 | G 4.08
H20: N 4.15 | C 3.94 | I 3.6 | G 4.43 | S 4.11 | E 4.76 | P 4.02 | D 4.46 | F 3.42 | Q 4.61 | Y 3.91 | T 4.49 | V 3.86 | W 3.32 | A 4.3 | L 3.95 | K 4.38 | R 4.26 | M 4.22
C18: W 2.77 | K 4.32 | L 4.09 | P 4.03 | N 4.5 | T 4.42 | D 4.46 | R 4.08 | I 4.23 | V 4.58 | M 4.19 | H 4.49 | S 4.42 | Y 3.77 | A 4.01 | G 4.3 | E 4.85 | F 3.79 | Q 4.28
P16: E 4.18 | Q 4.03 | H 3.88 | D 4.13 | A 3.98 | L 3.38 | R 3.96 | F 3.48 | I 3.67 | K 4.06 | Y 3.13 | G 4.55 | C 3.82 | T 3.94 | V 3.97 | N 3.68 | W 2.37 | S 4.4 | M 3.96
I22: F 3.88 | S 4.6 | D 4.63 | Y 4.23 | T 4.51 | K 4.32 | P 4.67 | C 3.84 | N 4.5 | R 4.53 | A 4.42 | H 4.78 | E 4.38 | W 3.68 | V 4.4 | G 4.48 | L 4.22 | M 3.51 | Q 4.22
N14: M 3.6 | T 4.16 | S 4.56 | P 4.3 | E 4.53 | D 4.04 | V 4.26 | A 4.25 | H 3.82 | K 3.65 | C 3.72 | Q 4.29 | F 3.06 | Y 3.73 | W 2.65 | I 3.06 | R 3.71 | L 3.48 | G 3.83
V19: G 3.89 | H 3.87 | C 3.93 | I 3.84 | A 4.34 | M 3.88 | P 4.64 | N 4.38 | E 4.32 | F 3.31 | S 4.47 | R 4.21 | K 4.28 | Q 4.21 | W 3.19 | L 3.68 | Y 3.86 | T 4.36 | D 4.74
D15: I 3.29 | T 3.56 | Q 3.82 | C 3.09 | W 2.04 | A 3.8 | L 3.27 | H 3.64 | N 4.06 | S 3.9 | G 3.67 | P 4.1 | Y 3 | R 3.45 | F 2.87 | K 3.79 | M 3.62 | V 3.68 | E 3.94
I23: W 3.52 | P 4.69 | H 4.74 | N 4.59 | Q 4.64 | G 4.49 | S 4.37 | A 4.59 | C 4.67 | K 4.74 | L 4.47 | F 4.02 | R 4.6 | M 4.19 | D 4.82 | V 3.85 | E 4.82 | T 4.57 | Y 4.16
K24: S 3.82 | E 4.13 | I 2.49 | W 2.73 | H 4.11 | F 2.33 | Q 3.74 | M 3 | Y 2.79 | G 3.76 | V 3.17 | P 4.27 | N 4.26 | R 4.09 | T 3.68 | D 4.22 | A 3.54 | L 2.67 | C 3.36
D13: W 2.48 | A 3.72 | I 3.24 | F 2.96 | N 3.68 | M 3.48 | E 4.21 | H 3.51 | L 3.4 | G 3.89 | T 3.76 | S 3.85 | R 3.76 | K 3.74 | V 3.5 | Q 3.9 | P 3.26 | C 3.21 | Y 2.74
T12: R 3.95 | V 4.01 | S 4.09 | W 3.11 | Q 4.18 | Y 3.25 | P 4.29
S17: C 3.53 | L 3.93 | T 4.27 | M 3.59 | H 4.06 | W 2.96 | A 4.42 | G 4.21 | D 4.08 | R 3.99 | Q 4.18 | Y 3.36 | F 3.12 | K 4.22 | V 4.16 | E 4.71 | P 4.41 | I 3.29 | N 4.01

Variants of: B2
Experiment: as above
Settings: c terminus: a fixed tail appended

Protein stability index, by site and new letter:
M1: R 4.33 | K 4.13 | P 4.36 | N 4.37 | E 4.44 | V 4.03 | T 4.12 | D 5.02 | C 3.59 | G 4.53 | Y 3.56 | L 3.06 | I 3.41 | W 3.36 | F 3.7 | S 4 | Q 4.24 | H 4.18 | A 3.87
S5: P 3.17 | G 4.68 | C 3.14 | F 2.82 | L 3.02 | V 3.43 | R 3.94 | W 3.17 | T 3.64 | D 4.06 | A 4.02 | K 3.56 | H 4.14 | E 4.24 | M 3.87 | Q 3.78 | Y 2.72 | I 2.65 | N 4.06
K3: D 3.84 | C 3.63 | V 2.7 | F 2.55 | W 2.94 | S 2.47 | M 3.7 | H 3.98 | Y 3.08 | Q 4.17 | T 3.73 | P 4.17 | I 2.59 | L 2.66 | R 3.6 | N 3.68 | A 4.56 | G 4.46 | E 3.66
Y2: V 4.05 | I 3.98 | R 4.7 | T 3.29 | K 4.7 | N 4.51 | F 4.01 | S 4.5 | W 2.58 | G 4.48 | M 4.45 | H 4.44 | L 4.34 | P 4.77 | A 4.55 | D 4.83 | Q 4.25 | C 3.53 | E 4.42
L4: F 3.5 | I 3.18 | R 4.24 | W 3.77 | M 4.27 | H 3.58 | Y 3.53 | S 4.06 | P 4.61 | K 4.49 | C 3.29 | D 4.53 | T 3.81 | A 4.69 | E 4.34 | Q 4.32 | N 4.23 | V 3.74
S6: D 4.03 | C 3.52 | E 3.53 | F 3.46 | A 3.64
